Reference: patent US20160237160A1, “ANTI-TWEAKR ANTIBODIES AND USES THEREOF” (BAYER PHARMA AKTIENGESELLSCHAFT, priority 2013, published 2016)

Molecular target: TWEAKR (TNFRSF12A, FN14), human, on tumor cell lines (human) (UniProt Q9NP84)
Test: cell-based or functional assay

% Inhibition of proliferation, 786-O cells, 96h, 100 ng/ml: 12% | % Inhibition of proliferation, A253 cells, 72h, 300 ng/ml: > 100% | % Inhibition of proliferation, HT-29 cells, 24h, 300 ng/ml: 98% | % Inhibition of proliferation, LOVO cells, 72h, 100 ng/ml: 53% | % Inhibition of proliferation, NCI-H1975 cells, 72h, 100 ng/ml: 56% | % Inhibition of proliferation, SW480 cells, 72h, 100 ng/ml: 0% | Fold induction of Caspase 3/7, 786-O cells, 300 ng/ml: 1.45 fold | Fold induction of Caspase 3/7, A253 cells, 300 ng/ml: 1.53 fold | Fold induction of Caspase 3/7, HT-29 cells, 300 ng/ml: 2.31 fold | Fold induction of Caspase 3/7, NCI-H322 cells, 100 ng/ml: 1.39 fold | Fold induction of Caspase 3/7, WiDr cells, 300 ng/ml: 1.22 fold
Substance: recombinant human TWEAK (R&D, #1090-TW-025/CF) (ligand)
